This passage reports Km and kcat results from article PMC9131517, “Enzymatic N-Allylation of Primary and Secondary Amines Using Renewable Cinnamic Acids Enabled by Bacterial Reductive Aminases” (ACS Sustainable Chemistry & Engineering, 2022).

Assay in all cases: initial rate of NADPH consumption
Holding throughout (assay type): biochemical, compost metagenome
What all share (conditions): 80 mM cyclopropylamine, 0.3 mM NADPH, pH 7.5 (100 mM NaPi), 30 °C

Substrate in series [1]: O=CCCc1ccccc1
The text has this:
(§1) initial rate of NADPH consumption on BacRedAm

Substrate in series [2]: O=C/C=C/c1ccccc1
Source text: as §1

Substrate in series [3]: O=C1CCCCC1
Source text: as §1

B1: BacRedAm (compost metagenome) (protein)
chain: MREPIVSAHTERAVESRGADRGSAVTVIGLGSMGSALAGAVLEAGYPTTVWNRTAGKAEPLVRRGAARAATVAEAVSASPTVIACVLDYRALREILSTAGDALAGRTVVNLTNGTPTEARETAAWVEGHGARYLDGGIMAVPEMIGGAESLVLYSGSAEAFETVEPVLRRFGSAMYLGADPGLASLHDLALLAGMYGLFAGFLHAVALVGTEGVRATEFTSSLLIPWLQAMTATLPEAAAQIDAGDYAATGSRLDMQAVALANIVEASRSQGIRPDLMLPIQALVERRVAKGGGGEDIAAVVEEVRG
notes: recombinant, expressed in E. coli BL21, purified
With B1, the figures for the Km in series [1], in series [2] and in series [3] were 2980 µM, 2580 µM and 13320 µM, respectively. The turnover number (kcat) in series [1] worked out at 1.45 s⁻¹; in series [2] it was 0.11 s⁻¹; in series [3], 5.12 s⁻¹.
